Experimental data reported in PMC8602451.

How the values were obtained:
Assay in all cases: TurboID proximity labelling, streptavidin pull-down, LC-MS
Conditions in all cases: U2OS stable cell lines; 50 μM biotin for 2 h; read off a plot
[1] = target: IRF2BP2 (UniProt Q7Z5L9)
[2] = target: RBM22
[3] = target: GATAD2B (UniProt Q8WXI9)
[4] = target: TRIM24 (UniProt O15164)
[5] = target: PIAS1 (UniProt O75925)
[6] = target: RAD54L2
[7] = target: TRIM33 (UniProt Q9UPN9)
[8] = target: HSPA8
[9] = target: PIAS3 (UniProt Q9Y6X2)
[10] = target: SNW1 (UniProt Q13573)
[11] = target: PIAS2 (UniProt O75928)
[12] = target: SIMC1
[13] = target: DAXX
[14] = target: FUS
[15] = target: XAB2 (UniProt Q9HCS7)
[16] = target: ZNF280A
[17] = target: EXOSC9
[18] = target: ZNF280B (UniProt Q86YH2)
[19] = target: PIAS4 (UniProt Q8N2W9)
UniProt Q8N2W9, sequence (Q8N2W9 whole entry): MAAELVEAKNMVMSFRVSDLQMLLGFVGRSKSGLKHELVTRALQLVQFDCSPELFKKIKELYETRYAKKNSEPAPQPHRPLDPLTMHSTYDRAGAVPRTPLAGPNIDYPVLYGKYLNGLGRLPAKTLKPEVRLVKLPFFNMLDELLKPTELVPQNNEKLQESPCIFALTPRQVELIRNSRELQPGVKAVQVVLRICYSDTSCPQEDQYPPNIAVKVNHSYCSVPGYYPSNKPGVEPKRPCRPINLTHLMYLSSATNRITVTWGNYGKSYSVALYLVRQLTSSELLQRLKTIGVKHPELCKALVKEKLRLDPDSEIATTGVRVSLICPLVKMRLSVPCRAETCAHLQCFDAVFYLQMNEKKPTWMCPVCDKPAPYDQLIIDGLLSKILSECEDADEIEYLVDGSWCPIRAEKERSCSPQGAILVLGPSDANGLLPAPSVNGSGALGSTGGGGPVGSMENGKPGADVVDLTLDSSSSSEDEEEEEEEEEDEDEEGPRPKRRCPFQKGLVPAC

UniProt O75928, sequence (O75928 whole entry): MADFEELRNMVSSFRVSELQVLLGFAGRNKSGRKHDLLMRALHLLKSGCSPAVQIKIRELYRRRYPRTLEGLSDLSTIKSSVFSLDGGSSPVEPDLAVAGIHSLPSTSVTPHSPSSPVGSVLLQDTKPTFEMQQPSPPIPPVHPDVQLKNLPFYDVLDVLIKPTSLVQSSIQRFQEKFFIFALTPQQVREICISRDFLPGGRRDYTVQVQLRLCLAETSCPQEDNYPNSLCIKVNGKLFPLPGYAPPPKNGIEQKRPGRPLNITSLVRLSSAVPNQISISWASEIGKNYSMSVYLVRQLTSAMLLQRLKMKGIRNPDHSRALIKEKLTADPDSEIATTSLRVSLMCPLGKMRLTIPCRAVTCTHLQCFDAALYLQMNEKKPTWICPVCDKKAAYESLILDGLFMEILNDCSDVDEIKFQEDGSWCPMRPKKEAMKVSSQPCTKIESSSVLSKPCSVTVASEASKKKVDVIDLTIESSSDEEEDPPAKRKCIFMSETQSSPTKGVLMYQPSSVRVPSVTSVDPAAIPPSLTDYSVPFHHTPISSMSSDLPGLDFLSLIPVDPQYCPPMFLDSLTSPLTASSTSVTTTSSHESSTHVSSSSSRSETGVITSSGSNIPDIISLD
UniProt O75925, sequence (O75925 whole entry): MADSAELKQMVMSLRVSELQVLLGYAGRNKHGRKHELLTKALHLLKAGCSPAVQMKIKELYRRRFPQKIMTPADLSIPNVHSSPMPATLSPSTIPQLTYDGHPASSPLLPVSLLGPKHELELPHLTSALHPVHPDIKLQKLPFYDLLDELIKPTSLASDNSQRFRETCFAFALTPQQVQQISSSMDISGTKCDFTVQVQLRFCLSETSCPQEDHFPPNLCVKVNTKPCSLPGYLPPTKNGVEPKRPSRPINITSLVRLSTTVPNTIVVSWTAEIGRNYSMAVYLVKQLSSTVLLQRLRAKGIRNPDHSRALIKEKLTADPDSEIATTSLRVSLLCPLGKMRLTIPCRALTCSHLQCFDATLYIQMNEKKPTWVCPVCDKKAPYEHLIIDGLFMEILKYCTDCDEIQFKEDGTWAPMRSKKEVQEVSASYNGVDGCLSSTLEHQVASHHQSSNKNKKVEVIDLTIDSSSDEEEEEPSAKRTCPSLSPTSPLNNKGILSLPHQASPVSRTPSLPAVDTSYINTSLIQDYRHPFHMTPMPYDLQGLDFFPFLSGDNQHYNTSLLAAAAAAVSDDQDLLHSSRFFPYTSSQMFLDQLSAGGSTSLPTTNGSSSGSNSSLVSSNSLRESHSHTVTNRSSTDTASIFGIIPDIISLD
UniProt Q9Y6X2, sequence (Q9Y6X2 whole entry): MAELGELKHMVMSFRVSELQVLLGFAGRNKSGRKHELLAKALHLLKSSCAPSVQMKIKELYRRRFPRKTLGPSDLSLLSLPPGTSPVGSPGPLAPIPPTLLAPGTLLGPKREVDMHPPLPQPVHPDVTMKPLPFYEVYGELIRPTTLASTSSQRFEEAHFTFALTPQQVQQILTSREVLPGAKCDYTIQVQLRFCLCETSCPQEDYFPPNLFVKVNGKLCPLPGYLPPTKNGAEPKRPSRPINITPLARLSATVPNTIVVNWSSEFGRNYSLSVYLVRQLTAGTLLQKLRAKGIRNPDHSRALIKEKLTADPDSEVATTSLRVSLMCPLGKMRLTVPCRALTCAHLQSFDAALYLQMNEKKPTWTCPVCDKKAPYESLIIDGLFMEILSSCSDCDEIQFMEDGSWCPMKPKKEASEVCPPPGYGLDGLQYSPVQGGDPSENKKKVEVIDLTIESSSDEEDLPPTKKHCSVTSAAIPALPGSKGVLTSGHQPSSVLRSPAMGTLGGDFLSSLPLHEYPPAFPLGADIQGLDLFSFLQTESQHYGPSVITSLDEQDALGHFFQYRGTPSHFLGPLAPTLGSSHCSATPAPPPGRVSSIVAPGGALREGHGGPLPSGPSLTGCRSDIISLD
UniProt Q9HCS7, sequence (Q9HCS7 whole entry): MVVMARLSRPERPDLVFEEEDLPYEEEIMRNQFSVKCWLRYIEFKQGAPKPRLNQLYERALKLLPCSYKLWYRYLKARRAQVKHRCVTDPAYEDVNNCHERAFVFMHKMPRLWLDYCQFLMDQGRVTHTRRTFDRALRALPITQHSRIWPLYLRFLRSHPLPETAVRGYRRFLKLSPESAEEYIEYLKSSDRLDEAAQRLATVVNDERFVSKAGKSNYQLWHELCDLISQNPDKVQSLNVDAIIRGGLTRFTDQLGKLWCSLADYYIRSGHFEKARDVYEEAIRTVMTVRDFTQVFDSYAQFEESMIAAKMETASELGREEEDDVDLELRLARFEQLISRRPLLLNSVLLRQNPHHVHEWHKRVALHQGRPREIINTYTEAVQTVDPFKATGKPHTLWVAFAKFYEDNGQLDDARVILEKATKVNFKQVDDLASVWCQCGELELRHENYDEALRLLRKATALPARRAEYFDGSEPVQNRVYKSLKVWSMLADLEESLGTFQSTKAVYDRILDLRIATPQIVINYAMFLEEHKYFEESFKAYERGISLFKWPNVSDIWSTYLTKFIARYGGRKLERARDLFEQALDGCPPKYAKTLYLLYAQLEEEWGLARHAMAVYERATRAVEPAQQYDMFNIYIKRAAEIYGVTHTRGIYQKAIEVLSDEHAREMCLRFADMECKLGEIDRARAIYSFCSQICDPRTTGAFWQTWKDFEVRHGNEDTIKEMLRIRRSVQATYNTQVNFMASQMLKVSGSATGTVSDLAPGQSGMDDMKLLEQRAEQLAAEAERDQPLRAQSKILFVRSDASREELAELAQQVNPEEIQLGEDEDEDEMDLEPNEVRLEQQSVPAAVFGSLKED
UniProt Q13573, sequence (Q13573 whole entry): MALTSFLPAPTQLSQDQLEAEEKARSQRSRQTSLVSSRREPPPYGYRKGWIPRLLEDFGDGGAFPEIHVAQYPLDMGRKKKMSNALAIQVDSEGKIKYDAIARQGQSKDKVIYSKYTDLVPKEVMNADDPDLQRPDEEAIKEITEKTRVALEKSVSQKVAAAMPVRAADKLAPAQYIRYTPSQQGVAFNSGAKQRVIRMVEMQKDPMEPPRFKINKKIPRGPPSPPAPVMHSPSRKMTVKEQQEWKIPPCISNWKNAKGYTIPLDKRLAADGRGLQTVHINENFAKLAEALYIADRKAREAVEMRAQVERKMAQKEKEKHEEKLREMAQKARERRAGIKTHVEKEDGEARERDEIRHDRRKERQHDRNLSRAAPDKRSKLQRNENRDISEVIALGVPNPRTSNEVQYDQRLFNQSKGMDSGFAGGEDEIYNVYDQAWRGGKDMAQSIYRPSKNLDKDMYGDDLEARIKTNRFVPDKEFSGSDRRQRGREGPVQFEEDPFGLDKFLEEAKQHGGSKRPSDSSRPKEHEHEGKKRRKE
UniProt Q8WXI9, sequence (Q8WXI9 whole entry): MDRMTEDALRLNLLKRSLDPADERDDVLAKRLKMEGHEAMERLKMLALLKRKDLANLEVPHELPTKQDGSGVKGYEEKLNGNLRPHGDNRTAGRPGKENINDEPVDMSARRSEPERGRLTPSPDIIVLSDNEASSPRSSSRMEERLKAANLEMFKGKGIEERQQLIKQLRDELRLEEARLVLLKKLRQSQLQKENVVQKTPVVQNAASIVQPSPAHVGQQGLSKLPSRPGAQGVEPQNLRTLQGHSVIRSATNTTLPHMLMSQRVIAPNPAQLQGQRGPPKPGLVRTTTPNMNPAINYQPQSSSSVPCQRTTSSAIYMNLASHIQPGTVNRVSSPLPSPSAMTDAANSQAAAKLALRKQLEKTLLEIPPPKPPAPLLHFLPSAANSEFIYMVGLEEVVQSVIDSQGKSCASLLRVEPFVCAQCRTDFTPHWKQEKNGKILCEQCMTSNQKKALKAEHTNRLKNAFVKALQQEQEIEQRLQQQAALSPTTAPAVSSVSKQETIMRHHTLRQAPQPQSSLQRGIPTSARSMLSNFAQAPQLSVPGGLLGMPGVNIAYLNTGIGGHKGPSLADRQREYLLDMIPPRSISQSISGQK
UniProt Q7Z5L9, sequence (Q7Z5L9 whole entry): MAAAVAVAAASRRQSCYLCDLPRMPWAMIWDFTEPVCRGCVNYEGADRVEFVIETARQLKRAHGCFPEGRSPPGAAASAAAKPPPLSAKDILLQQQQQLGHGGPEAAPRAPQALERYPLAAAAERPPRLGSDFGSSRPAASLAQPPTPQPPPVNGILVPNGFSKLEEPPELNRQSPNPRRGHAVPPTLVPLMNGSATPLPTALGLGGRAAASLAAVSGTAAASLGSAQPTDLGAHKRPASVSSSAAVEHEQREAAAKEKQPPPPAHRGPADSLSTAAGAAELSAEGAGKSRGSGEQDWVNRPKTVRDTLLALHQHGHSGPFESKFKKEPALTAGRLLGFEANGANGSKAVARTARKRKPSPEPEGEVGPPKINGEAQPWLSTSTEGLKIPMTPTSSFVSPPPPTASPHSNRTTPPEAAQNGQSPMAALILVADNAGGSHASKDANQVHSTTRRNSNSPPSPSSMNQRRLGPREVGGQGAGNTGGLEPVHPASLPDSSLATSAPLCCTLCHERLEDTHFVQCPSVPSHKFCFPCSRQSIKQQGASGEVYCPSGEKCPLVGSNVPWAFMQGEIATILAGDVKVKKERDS

Work on “FLTbID-PML^WT (from UniProt P29590-12) 3MAS (K65; K160; K490 and SIM; replacement residues not printed)” yielded an other: Log2 LFQ ratio (TurboID-PML WT / TurboID-PML 3MAS) [1] of 0.15 Log2 LFQ, an other: Log2 LFQ ratio (TurboID-PML WT / TurboID-PML 3MAS) [2] of 3.5 Log2 LFQ and an other: Log2 LFQ ratio (TurboID-PML WT / TurboID-PML 3MAS) [3] of 1.4 Log2 LFQ. For the same substance, the other: Log2 LFQ ratio (TurboID-PML WT / TurboID-PML 3MAS) [4] was 3.4 Log2 LFQ, the other: Log2 LFQ ratio (TurboID-PML WT / TurboID-PML 3MAS) [5] was 3.5 Log2 LFQ and the other: Log2 LFQ ratio (TurboID-PML WT / TurboID-PML 3MAS) [6] was 5.4 Log2 LFQ. For the same substance, the other: Log2 LFQ ratio (TurboID-PML WT / TurboID-PML 3MAS) [7] was 3.4 Log2 LFQ, the other: Log2 LFQ ratio (TurboID-PML WT / TurboID-PML 3MAS) [8] was 0.55 Log2 LFQ and the other: Log2 LFQ ratio (TurboID-PML WT / TurboID-PML 3MAS) [9] was 3.6 Log2 LFQ. For the same substance, the other: Log2 LFQ ratio (TurboID-PML WT / TurboID-PML 3MAS) [10] was 0.58 Log2 LFQ, the other: Log2 LFQ ratio (TurboID-PML WT / TurboID-PML 3MAS) [11] was 2.3 Log2 LFQ and the other: Log2 LFQ ratio (TurboID-PML WT / TurboID-PML 3MAS) [12] was 5.9 Log2 LFQ. For the same substance, the other: Log2 LFQ ratio (TurboID-PML WT / TurboID-PML 3MAS) [13] was 2.3 Log2 LFQ, the other: Log2 LFQ ratio (TurboID-PML WT / TurboID-PML 3MAS) [14] was 4.5 Log2 LFQ and the other: Log2 LFQ ratio (TurboID-PML WT / TurboID-PML 3MAS) [15] was 0.1 Log2 LFQ. It also gave an other: Log2 LFQ ratio (TurboID-PML WT / TurboID-PML 3MAS) [16] of 2.9 Log2 LFQ, an other: Log2 LFQ ratio (TurboID-PML WT / TurboID-PML 3MAS) [17] of 1.8 Log2 LFQ and an other: Log2 LFQ ratio (TurboID-PML WT / TurboID-PML 3MAS) [18] of 4.8 Log2 LFQ. For the same substance, the other: Log2 LFQ ratio (TurboID-PML WT / TurboID-PML 3MAS) [19] was 3.7 Log2 LFQ.
